Measurements as given in PMC10786891, “Massively parallel profiling of RNA-targeting CRISPR-Cas13d”.

T1: EsCas13d, nuclease-dead (Eubacterium siraeum, UniProt B0MS50, R295A;H300A;R849A;H854A)
T1 sequence: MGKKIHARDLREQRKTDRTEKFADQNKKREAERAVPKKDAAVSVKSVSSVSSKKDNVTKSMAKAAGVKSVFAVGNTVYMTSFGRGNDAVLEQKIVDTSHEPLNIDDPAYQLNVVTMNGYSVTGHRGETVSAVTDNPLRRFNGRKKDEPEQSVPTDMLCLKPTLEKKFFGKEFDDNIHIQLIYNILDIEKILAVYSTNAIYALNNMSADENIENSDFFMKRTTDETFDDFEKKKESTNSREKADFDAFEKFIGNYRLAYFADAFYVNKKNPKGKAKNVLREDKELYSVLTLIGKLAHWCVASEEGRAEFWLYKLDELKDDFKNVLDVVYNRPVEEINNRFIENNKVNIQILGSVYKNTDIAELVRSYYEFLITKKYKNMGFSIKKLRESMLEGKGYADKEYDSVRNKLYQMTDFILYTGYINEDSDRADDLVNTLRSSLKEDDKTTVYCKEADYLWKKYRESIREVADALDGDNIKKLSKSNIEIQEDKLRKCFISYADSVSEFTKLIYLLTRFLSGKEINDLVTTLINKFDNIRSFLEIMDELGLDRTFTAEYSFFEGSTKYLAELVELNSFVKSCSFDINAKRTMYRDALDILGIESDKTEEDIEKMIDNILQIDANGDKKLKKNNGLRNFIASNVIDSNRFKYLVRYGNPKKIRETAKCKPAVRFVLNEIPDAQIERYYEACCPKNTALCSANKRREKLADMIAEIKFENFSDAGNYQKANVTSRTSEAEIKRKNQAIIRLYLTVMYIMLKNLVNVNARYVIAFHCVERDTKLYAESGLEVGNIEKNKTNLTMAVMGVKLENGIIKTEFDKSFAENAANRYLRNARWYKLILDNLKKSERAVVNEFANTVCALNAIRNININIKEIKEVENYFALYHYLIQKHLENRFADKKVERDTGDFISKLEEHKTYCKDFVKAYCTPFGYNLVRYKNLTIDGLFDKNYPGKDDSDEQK

B1: target 2 MT 5'PFS CUG 3'PFS CCA (mixed)
RNA 1: CACCCGUGCAAAAUUGCAGGGGUCUAAAACCUUCUCCAAAUUGUUUCAUCCU
RNA 2: GGGAAUGGAUCCACAUCUACGAAUUCCUGAGGAUGAAACAAUUUGGAGAAGCCAAGAUCGGAAGAGCACACGU
B2: target 2 MT 5'PFS ACU 3'PFS AGG (mixed)
RNA 1: CACCCGUGCAAAAUUGCAGGGGUCUAAAACCUUCUCCAAAUUGUUUCAUCCU
RNA 2: GGGAAUGGAUCCACAUCUACGAAUUCACUAGGAUGAAACAAUUUGGAGAAGAGGAGAUCGGAAGAGCACACGU
B3: target 2 MT 5'PFS GUG 3'PFS UAC (mixed)
RNA 1: CACCCGUGCAAAAUUGCAGGGGUCUAAAACCUUCUCCAAAUUGUUUCAUCCU
RNA 2: GGGAAUGGAUCCACAUCUACGAAUUCGUGAGGAUGAAACAAUUUGGAGAAGUACAGAUCGGAAGAGCACACGU
B4: target 2 MT 5'PFS UGA 3'PFS UAA (mixed)
RNA 1: CACCCGUGCAAAAUUGCAGGGGUCUAAAACCUUCUCCAAAUUGUUUCAUCCU
RNA 2: GGGAAUGGAUCCACAUCUACGAAUUCUGAAGGAUGAAACAAUUUGGAGAAGUAAAGAUCGGAAGAGCACACGU
B5: target 2 MT 5'PFS GUA 3'PFS AUA (mixed)
RNA 1: CACCCGUGCAAAAUUGCAGGGGUCUAAAACCUUCUCCAAAUUGUUUCAUCCU
RNA 2: GGGAAUGGAUCCACAUCUACGAAUUCGUAAGGAUGAAACAAUUUGGAGAAGAUAAGAUCGGAAGAGCACACGU
B6: target 2 MT 5'PFS ACU 3'PFS AGA (mixed)
RNA 1: CACCCGUGCAAAAUUGCAGGGGUCUAAAACCUUCUCCAAAUUGUUUCAUCCU
RNA 2: GGGAAUGGAUCCACAUCUACGAAUUCACUAGGAUGAAACAAUUUGGAGAAGAGAAGAUCGGAAGAGCACACGU
B7: target 2 MT 5'PFS UGA 3'PFS UAC (mixed)
RNA 1: CACCCGUGCAAAAUUGCAGGGGUCUAAAACCUUCUCCAAAUUGUUUCAUCCU
RNA 2: GGGAAUGGAUCCACAUCUACGAAUUCUGAAGGAUGAAACAAUUUGGAGAAGUACAGAUCGGAAGAGCACACGU
B8: target 2 MT 5'PFS GAU 3'PFS CGA (mixed)
RNA 1: CACCCGUGCAAAAUUGCAGGGGUCUAAAACCUUCUCCAAAUUGUUUCAUCCU
RNA 2: GGGAAUGGAUCCACAUCUACGAAUUCGAUAGGAUGAAACAAUUUGGAGAAGCGAAGAUCGGAAGAGCACACGU
B9: target 2 MT 5'PFS GCA 3'PFS ACU (mixed)
RNA 1: CACCCGUGCAAAAUUGCAGGGGUCUAAAACCUUCUCCAAAUUGUUUCAUCCU
RNA 2: GGGAAUGGAUCCACAUCUACGAAUUCGCAAGGAUGAAACAAUUUGGAGAAGACUAGAUCGGAAGAGCACACGU
B10: target 2 MT 5'PFS GAU 3'PFS CGC (mixed)
RNA 1: CACCCGUGCAAAAUUGCAGGGGUCUAAAACCUUCUCCAAAUUGUUUCAUCCU
RNA 2: GGGAAUGGAUCCACAUCUACGAAUUCGAUAGGAUGAAACAAUUUGGAGAAGCGCAGAUCGGAAGAGCACACGU
B11: target 2 MT 5'PFS GAU 3'PFS CGU (mixed)
RNA 1: CACCCGUGCAAAAUUGCAGGGGUCUAAAACCUUCUCCAAAUUGUUUCAUCCU
RNA 2: GGGAAUGGAUCCACAUCUACGAAUUCGAUAGGAUGAAACAAUUUGGAGAAGCGUAGAUCGGAAGAGCACACGU
B12: target 2 MT 5'PFS ACU 3'PFS AGC (mixed)
RNA 1: CACCCGUGCAAAAUUGCAGGGGUCUAAAACCUUCUCCAAAUUGUUUCAUCCU
RNA 2: GGGAAUGGAUCCACAUCUACGAAUUCACUAGGAUGAAACAAUUUGGAGAAGAGCAGAUCGGAAGAGCACACGU
B13: target 1 insU 3' of 21,insC 3' of 19 (mixed)
RNA 1: CACCCGUGCAAAAAUGCAGGGGUCUAAAACUGAGCGGAUAACCUCUCUAUGG
RNA 2: GGGAAUGGAUCCACAUCUACGAAUUCGUACCUAUCAGAGAGGUUAUCCGCUCACCGAGAUCGGAAGAGCACACGU

biological target: T1, EsCas13d, nuclease-dead; assay: crRNA (strand 1, pre-loaded); Mg2+; 40 mM Tris-HCl pH 7.5, 150 mM NaCl, 6 mM MgCl2, 1 mM DTT, 0.1% Tween-20, 0.2 mg/ml BSA; 25 C; 10 min per concentration, then washed; details: tags: His6-TwinStrep-SUMO cleaved; N-terminal SNAP kept (SNAP-Surface 488); label: 3' end held by stalled T7 RNA polymerase

Q: With B1 as the binder, how does the Kd read?
A: Its Kd is 14.9 ± 3.1 nM.

Q: Which Kd does the source give for B2 here?
A: The Kd was 4.5 ± 0.6 nM.

Q: How did the Kd turn out when B3 was run?
A: The Kd was 15.1 ± 1.5 nM.

Q: Which Kd does the source give for B4 here?
A: Its Kd is 6 ± 1.3 nM.

Q: Which Kd does the source give for B5 here?
A: Its Kd is 6.1 ± 0.7 nM.

Q: How did the Kd turn out when B6 was run?
A: The Kd was 3.7 ± 0.5 nM.

Q: For B7, which Kd is on record?
A: The Kd was 9.1 ± 1.6 nM.

Q: With B8 as the binder, how does the Kd read?
A: The Kd was 10.9 ± 1.4 nM.

Q: Which Kd does the source give for B9 here?
A: Its Kd is 13.2 ± 1.8 nM.

Q: How did the Kd turn out when B10 was run?
A: The Kd was 12.7 ± 2 nM.

Q: How did the Kd turn out when B11 was run?
A: The Kd was 14.1 ± 2.6 nM.

Q: B12 was tested. Which Kd did it give?
A: Its Kd is 3.18 ± 0.3 nM.

Q: B13 was tested. Which Kd did it give?
A: The Kd was roughly 100 nM.
